According to IntAct's records for PubMed 20595257:

B1: Aerobic respiration control sensor protein ArcB (Escherichia coli (strain K12)), P0AEC3 (parent)
chain: MKQIRLLAQYYVDLMMKLGLVRFSMLLALALVVLAIVVQMAVTMVLHGQVESIDVIRSIFFGLLITPWAVYFLSVVVEQLEESRQRLSRLVQKLEEMRERDLSLNVQLKDNIAQLNQEIAVREKAEAELQETFGQLKIEIKEREETQIQLEQQSSFLRSFLDASPDLVFYRNEDKEFSGCNRAMELLTGKSEKQLVHLKPADVYSPEAAAKVIETDEKVFRHNVSLTYEQWLDYPDGRKACFEIRKVPYYDRVGKRHGLMGFGRDITERKRYQDALERASRDKTTFISTISHELRTPLNGIVGLSRILLDTELTAEQEKYLKTIHVSAVTLGNIFNDIIDMDKMERRKVQLDNQPVDFTSFLADLENLSALQAQQKGLRFNLEPTLPLPHQVITDGTRLRQILWNLISNAVKFTQQGQVTVRVRYDEGDMLHFEVEDSGIGIPQDELDKIFAMYYQVKDSHGGKPATGTGIGLAVSRRLAKNMGGDITVTSEQGKGSTFTLTIHAPSVAEEVDDAFDEDDMPLPALNVLLVEDIELNVIVARSVLEKLGNSVDVAMTGKAALEMFKPGEYDLVLLDIQLPDMTGLDISRELTKRYPREDLPPLVALTANVLKDKQEYLNAGMDDVLSKPLSVPALTAMIKKFWDTQDDEESTVTTEENSKSEALLDIPMLEQYLELVGPKLITDGLAVFEKMMPGYVSVLESNLTAQDKKGIVEEGHKIKGAAGSVGLRHLQQLGQQIQSPDLPAWEDNVGEWIEEMKEEWRHDVEVLKAWVAKATKK
partner: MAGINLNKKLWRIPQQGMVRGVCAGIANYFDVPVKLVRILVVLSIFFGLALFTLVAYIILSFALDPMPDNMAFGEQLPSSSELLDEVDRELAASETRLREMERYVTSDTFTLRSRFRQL
B2: Aerobic respiration control sensor protein ArcB (Escherichia coli (strain K12)), P0AEC3 (parent)
chain: B1 chain
B3: Phage shock protein C (Escherichia coli (strain K12)), P0AFN2 (parent)
chain: B1 partner
partner: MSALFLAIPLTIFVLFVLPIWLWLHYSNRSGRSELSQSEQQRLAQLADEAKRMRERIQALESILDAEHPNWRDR
B4: Phage shock protein C (Escherichia coli (strain K12)), P0AFN2 (parent)
chain: B1 partner
B5: Aerobic respiration control sensor protein ArcB (Escherichia coli (strain K12)), P0AEC3 (parent)
chain: B1 chain
partner: B3 partner
B6: Phage shock protein B (Escherichia coli (strain K12)), P0AFM9 (parent)
chain: B3 partner
partner: B1 partner

Variants of: B1
Conditions: with pspc_ecoli pspC

| Variant | effect of a mutation on the interaction |
| --- | --- |
| L87A;L90A;L94A;M97A | with no effect |

Variants of: B2
Conditions: with pspa_ecoli pspA

| Variant | effect of a mutation on the interaction |
| --- | --- |
| L87A;L90A;L94A;M97A | with no effect |

Variants of: B3
Conditions: with pspb_ecoli pspB

| Variant | effect of a mutation on the interaction |
| --- | --- |
| G48A | with no effect |
| G74A | with no effect |

Variants of: B4
Conditions: with pspa_ecoli pspA

| Variant | effect of a mutation on the interaction |
| --- | --- |
| G48A | disrupting interaction strength |
| G74A | with no effect |
| L91A;L98A | disrupting interaction strength |

Variants of: B5
Conditions: with pspb_ecoli pspB

| Variant | effect of a mutation on the interaction |
| --- | --- |
| L87A;L90A;L94A;M97A | with no effect |

Variants of: B6
Conditions: with pspc_ecoli pspC

| Variant | effect of a mutation on the interaction |
| --- | --- |
| L10A;L15A;L18A | with no effect |
